Data on 1 molecule can be found in paper PMC9405023, “NRF2 Regulates Cystathionine Gamma-Lyase Expression and Activity in Primary Airway Epithelial Cells Infected with Respiratory Syncytial Virus”.

The data set has as its target T1, recombinant NRF2 (rNRF2) (UniProt Q16236 1-605).
T1 sequence: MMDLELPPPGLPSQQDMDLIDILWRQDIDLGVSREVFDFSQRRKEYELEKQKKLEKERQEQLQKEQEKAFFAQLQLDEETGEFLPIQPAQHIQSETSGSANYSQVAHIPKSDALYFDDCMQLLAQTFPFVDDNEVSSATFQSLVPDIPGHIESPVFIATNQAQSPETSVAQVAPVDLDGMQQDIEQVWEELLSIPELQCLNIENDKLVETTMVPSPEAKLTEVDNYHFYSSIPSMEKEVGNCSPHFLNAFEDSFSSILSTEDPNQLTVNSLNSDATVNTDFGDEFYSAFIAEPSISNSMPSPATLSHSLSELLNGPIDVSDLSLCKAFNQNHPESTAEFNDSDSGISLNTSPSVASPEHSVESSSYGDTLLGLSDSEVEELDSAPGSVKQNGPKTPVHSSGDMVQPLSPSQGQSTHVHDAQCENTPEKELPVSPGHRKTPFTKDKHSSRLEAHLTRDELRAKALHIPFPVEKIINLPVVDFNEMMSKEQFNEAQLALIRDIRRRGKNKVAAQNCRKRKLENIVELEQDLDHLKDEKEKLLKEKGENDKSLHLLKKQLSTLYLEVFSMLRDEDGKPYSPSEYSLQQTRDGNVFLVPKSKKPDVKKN
Briefly: EMSA; C1 and C2 complexes; 10 mM Tris-HCl pH 8.0, 50 mM KCl, 50 mM NaCl, 1 mM MgCl2, 1 mM EDTA, 5 mM DTT, 2.5% glycerol, 0.3 ug poly dI-dC, 15 fmol probe, 6-8 ug nuclear extract, 10 uL, 15 min, room temperature. The conditions noted are these: protein: recombinant; label: 32P (probe); blunt.

B1: -156/-120 CSE wild type (WT) (dsDNA)
DNA 1: CGGTCGCGGTGACGTTTCAGGCAACGCCTCTGCTGT
DNA 2: ACAGCAGAGGCGTTGCCTGAAACGTCACCGCGACCG
For the molecule B1, the binding result is on record as “binds”.
